Our source for the response (Response Units) values is PMC11066036.

The labels stand for the following.
B1: HPK1 kinase domain (KD TSEE WT) [not stated] / HPK1 intact citron homology domain fragment (C428-E821), untagged [not stated] (parent)
chain 1: CASGPPPNSPRPGPPPSTSSPHLTAHSEPSLWNPPSRELDKPPLLPPKKEKMKRKGCALLVKLFNGCPLRIHSTAAWTHPSTKDQHLLLGAEEGIFILNRNDQEATLEMLFPSRTTWVYSINNVLMSLSGKTPHLYSHSILGLLERKETRAGNPIAHISPHRLLARKNMVSTKIQDTKGCRACCVAEGASSGGPFLCGALETSVVLLQWYQPMNKFLLVRQVLFPLPTPLSVFALLTGPGSELPAVCIGVSPGRPGKSVLFHTVRFGALSCWLGEMSTEHRGPVQVTQVEEDMVMVLMDGSVKLVTPEGSPVRGLRTPEIPMTEAVEAVAMVGGQLQAFWKHGVQVWALGSDQLLQELRDPTLTFRLLGSPRPVVVETRPVDDPTAPSNLYIQE
chain 2: DVVDPDIFNRDPRDHYDLLQRLGGGTYGEVFKARDKVSGDLVALKMVKMEPDDDVSTLQKEILILKTCRHANIVAYHGSYLWLQKLWICMEFCGAGSLQDIYQVTGSLSELQISYVCREVLQGLAYLHSQKKIHRDIKGANILINDAGEVRLADFGISAQIGAELARRLEFIGTPYWMAPEVAAVALKGGYNELCDIWSLGITAIELAELQPPLFDVHPLRVLFLMTKSGYQPPRLKEKGKWSAAFHNFIKVTLTKSPKKRPSATKMLSHQLVSQPGLNRGLILDLLDKLKN

In this experiment the parent is B1. The experiment in a line: SPR. To be noted: with HPK1 intact citron homology domain fragment (C428-E821), left plot, plateau of the last (highest) of five successive CHD injections, about 800-900 s, CHD concentrations not given, parent: 30, read off a plot.
Turning to chain 2 L220K, the response (Response Units) stood at 43.
